Consider four molecules from patent US20080248458A1 (UNIVERSITY OF NORTH CAROLINA AT CHAPEL HILL, published 2008).

T1: Bmi-1, P25916
T1 chain: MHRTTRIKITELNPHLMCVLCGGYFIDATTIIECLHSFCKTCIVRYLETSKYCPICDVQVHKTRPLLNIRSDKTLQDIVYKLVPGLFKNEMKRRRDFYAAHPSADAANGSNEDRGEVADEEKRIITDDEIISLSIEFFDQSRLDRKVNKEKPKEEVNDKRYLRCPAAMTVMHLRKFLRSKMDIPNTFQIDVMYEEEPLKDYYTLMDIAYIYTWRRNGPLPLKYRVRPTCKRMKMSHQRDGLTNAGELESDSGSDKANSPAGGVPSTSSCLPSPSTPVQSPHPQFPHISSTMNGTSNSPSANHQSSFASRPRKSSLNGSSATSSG

T2: FLAG®-Ring1B (mouse, UniProt Q9CQJ4 1-336)
T2 construct: also called F-Ring1B
T2 sequence: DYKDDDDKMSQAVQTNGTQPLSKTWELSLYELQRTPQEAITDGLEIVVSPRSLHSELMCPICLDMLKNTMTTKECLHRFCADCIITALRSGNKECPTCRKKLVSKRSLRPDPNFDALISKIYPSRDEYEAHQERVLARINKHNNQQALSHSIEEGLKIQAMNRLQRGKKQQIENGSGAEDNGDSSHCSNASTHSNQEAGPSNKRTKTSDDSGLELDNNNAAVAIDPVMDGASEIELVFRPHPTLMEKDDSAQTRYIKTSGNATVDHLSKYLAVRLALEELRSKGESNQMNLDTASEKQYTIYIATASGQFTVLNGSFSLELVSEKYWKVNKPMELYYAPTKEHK

T3: Ring1A (mouse, UniProt O35730 1-406)
T3 construct: mature; Untagged protein: 35S-labelled in vitro translation product in the GST pull-down; baculovirus-expressed in Sf9 cells in the co-purifications; also called Ring1/Ring1A
T3 sequence (looked up): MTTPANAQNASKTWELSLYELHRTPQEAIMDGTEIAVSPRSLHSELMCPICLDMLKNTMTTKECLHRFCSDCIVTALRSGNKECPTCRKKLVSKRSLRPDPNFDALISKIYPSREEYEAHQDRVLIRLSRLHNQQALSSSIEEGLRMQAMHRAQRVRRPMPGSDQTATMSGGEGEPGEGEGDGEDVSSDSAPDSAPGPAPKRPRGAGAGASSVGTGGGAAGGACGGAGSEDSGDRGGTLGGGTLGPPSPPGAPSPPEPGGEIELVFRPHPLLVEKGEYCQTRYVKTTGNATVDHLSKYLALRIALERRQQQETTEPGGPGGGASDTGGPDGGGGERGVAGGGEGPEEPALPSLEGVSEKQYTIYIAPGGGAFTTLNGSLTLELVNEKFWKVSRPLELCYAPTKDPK

T4: GST-Ring1A (mouse, UniProt O35730 1-406)
T4 construct: mature; Full-length cDNA cloned into pGEX-KG; also called GST fusion of Ring1A; not shown: glutathione S-transferase (GST) encoded by the pGEX-KG vector
T4 sequence (looked up): T3 sequence (looked up)

B1: FLAG®-Ring1B (protein)
chain: T2 sequence
B2: Bmi-1 (other, mouse, UniProt P25916 1-324, looked up)
chain: T1 chain
notes: mature; Untagged protein: 35S-labelled in vitro translation product in the GST pull-down; baculovirus-expressed in Sf9 cells in the two-component complex with FLAG-Ring1B
B3: GST-Ring1B (other, mouse, UniProt Q9CQJ4 2-336, looked up)
chain: SQAVQTNGTQPLSKTWELSLYELQRTPQEAITDGLEIVVSPRSLHSELMCPICLDMLKNTMTTKECLHRFCADCIITALRSGNKECPTCRKKLVSKRSLRPDPNFDALISKIYPSRDEYEAHQERVLARINKHNNQQALSHSIEEGLKIQAMNRLQRGKKQQIENGSGAEDNGDSSHCSNASTHSNQEAGPSNKRTKTSDDSGLELDNNNAAVAIDPVMDGASEIELVFRPHPTLMEKDDSAQTRYIKTSGNATVDHLSKYLAVRLALEELRSKGESNQMNLDTASEKQYTIYIATASGQFTVLNGSFSLELVSEKYWKVNKPMELYYAPTKEHK
notes: mature; Full-length cDNA cloned into pGEX-KG; also called GST fusion of Ring1B; not shown: glutathione S-transferase (GST) encoded by the pGEX-KG vector
B4: Ring1B (enzyme, mouse, UniProt Q9CQJ4 2-336, looked up)
chain: B3 chain
notes: mature; Untagged protein: 35S-labelled in vitro translation product (pCITE, full-length cDNA) in the GST pull-down; baculovirus-expressed in Sf9 cells in the co-purifications; also called Ring2; Ring2/Ring1B

In one series the target is T1, Bmi-1, P25916.
For the series “Ring1B”, the target named is B4. Nature of the series: purification of two-component complexes from infected insect cells (FIG. 13D).
The target of another series is T2, FLAG®-Ring1B. Description: co-expression in Sf9 cells, anti-FLAG purification, silver stain (FIG. 7A). As to the method:
To purify the recombinant PRC1 complex and sub-complexes, different baculoviruses were used to co-infect SF9 cells. After two days of infection, cells were collected and resuspended in F lysis buffer [20 mM Tris (pH 7.9), 500 mM NaCl, 4 mM MgCl₂, 0.4 mM EDTA, 2 mM DTT, 20% glycerol, 0.1% NP40] with proteinase inhibitors. Then cells were homogenized with pestle A three times (10 strokes each) in a period of 30 minutes. The supernatant was recovered by centrifuging at 11,000 rpm for 10 minutes. The supernatant was adjusted to 300 mM NaCl by adding Dilution buffer [20 mM Tris (pH 7.9), 10% glycerol], then incubated with the M2 α-FLAG® agarose (Sigma, St. Louis, Mo.) equilibrated with F lysis buffer for 4 hours at 4° C. After washing with F washing buffer [20 mM Tris (pH 7.9), 150 mM NaCl, 2 mM MgCl₂, 0.2 mM EDTA, 1 mM DTT, 15% glycerol, 0.01% NP40] until no protein came out, bound proteins were eluted with 0.2 mg/ml FLAG® peptide ([…]; SEQ ID NO:5) in F washing buffer for 20 minutes each time at room temperature. The eluted complexes were further purified through a gel-filtration SEPHADEX 200 or SUPEROSE 6 column. […]

A further series concerns the target T3, Ring1A. Nature of the series: GST pull-down with 35S-labelled in vitro translated protein (FIG. 5A). As to the method: (§1) Full-length cDNAs for Ring1B, Ring1A, Bmi-1, Pc3 and Ph2 were inserted into pCITE vector for in vitro translation using the rabbit reticulocyte lysate kit according to the manufacturer's instructions (PROMEGA, Madison, Wis.). Full-length cDNAs for Ring1B, Ring1A, Bmi-1, Pc3 and Ph2 were also cloned into pGEX-KG vector for the production of GST-fusion proteins. About 3 μg of GST or GST fusion proteins were bound to 10 μL of glutathione-immobilized agarose beads (Sigma) and incubated with in vitro-translated products in 500 μL buffer A (50 mM Tris-HCl [pH 7.9], 0.5 mM EDTA, 1 mM dithiothreitol, 0.2 mM phenylmethylsulfonyl fluoride, 10% glycerol) containing 150 mM KCl and 0.05% NP-40. After incubation at 4° C. for 2 hours, the beads were washed three times with buffer A containing 300 mM KCl and 0.05% NP-40 and then washed once in buffer A containing 50 mM KCl before being subjected to SDS-PAGE and autoradiogram.
(§2) To address the effect of other subunits on Ring1B enzymatic activity, an attempt was made to reconstitute Ring1B-containing subcomplexes. Toward this end, the precise spatial relationship among components of the complex were first defined using GST full-down assays. Individual components were expressed as GST fusion proteins and equal amounts of the fusion proteins, as well as GST alone (FIG. 5A, last panel), were immobilized onto beads and incubated with ³⁵S-labeled proteins. […]

Another series deals with T4, GST-Ring1A. The series is described as above. As to the method:
as §1, §2

For B1, the “E3 ligase activity (ubiquitylation of nucleosomal substrates)” value with Bmi-1, P25916 is “stimulated its E3 ligase activity”.
On to B2, for which the binding result in the series with Ring1B and with FLAG®-Ring1B was “binds” each time.
B3: the binding result with Ring1A was “no binding”.
Take B4: the binding result with GST-Ring1A is given as “no binding”.
